First the molecules themselves.
B1: CP_03_F10 (scFv, not shown: small tags and cut ends)
scFv: EVQLVESGAEVKKPGASVKVSCKASGYTFTGYYMHWVRQAPGQGLEWMGRINPNSGGTNYAQKFQGRVTMTRDTSISTAYMELSSLRSEDTAVYYCARFGERYAFDIWGQGTLVTVSSGGGGSGGGGSGGGASQSELTQPPSASGSPGQSVTISCTGTSTDVGAFHFVSWYQHTPGKAPKLLISEVRKRASGVPDRFSGSRSGNTASLTVSGLQSEDEADYFCSAYTGSNYVFGSGTKLTVLGQPAA
B2: CP_03_G09 (scFv, not shown: small tags and cut ends)
scFv: QVQLQQSGPGLVKPSQTLSLTCAISGDSVSSNSAAWNWIRQSPSRGLEWLGRTYYRSKWYNDYAVSVKSRITINPDTSKNQFSLQLNSVTPEDTAVYYCARDQWLANYYYYGMDVWGQGTLVTVSSGGGGSGGGGSGGGASSYELTQPLSVSVALGQTARITCGGNNIGSKNVHWYQQKPGQAPVLVIYRDNNRPSGIPERFSGSNSGNTATLTISKAQAGDEADYYCQVWDSNSWVFGGGTKLTVLGQPAA
B3: CP_03_D09 (scFv, not shown: small tags and cut ends)
scFv: EVQLVQSGAEVKKPGSSVKVSCEASGYTFTSYAISWVRQAPGQGLEWMGWMNPNSGNTGYAQKFQGRVTMTRNTSISTAYMELSSLRSEDTAVYYCARVSSYYGMDVWGQGTLVTVSSGGGGSGGGGSGGGASNFMLTQPLSVSESPGKTVTISCTRSSGSIASNYVQWYQQRPGSAPTTVIYEDNQRPSGVPDRFSGSIDSSSNSASLTISGLKTEDEADYYCQSYNSSNHWVFGGGTKVTVLGQPAA
B4: CP_03_D05 (scFv, not shown: small tags and cut ends)
scFv: QVQLVESGAEVKKPGASVKVSCKASGYTFTGYYMHWVRQAPGQGLEWMGRINPNSGGTNYAQKFQGRVTMTRDTSISTAYMELSRLRSDDTAVYYCASPRGRGSAFDIWGQGTLVTVSSGGGGSGGGGSGGGASSYELTQPPSVSVSPGQTATISCSGDQLGGKYGHWYQKKPGQSPVLVLYQDRKRPAGIPERFSGSSSGNTITLTISGTQAVDEADYYCQAWDTNLGGVFGGGTKVTVLGQPAA
B5: CP_03_E05 (scFv, not shown: small tags and cut ends)
scFv: EVQLVESGGGVVQPGGSLRLSCAASGFTFSSYAMSWVRQAPGKGLEWVSAISGSGGSTYYADSVKGRFSISRDNSKNTLYLQMNSLRAEDTAVYYCARTRSSGAFDIWGQGTLVTVSSGGGGSGGGGSGGGASNFMLTQPHSVSESPGKTVTISCTRSSGSIASKYVQWYQQRPGSSPTTVIYEDNQRPSGVPDRFSGSIDTSSNSASLTISGLRTEDEADYYCHSYDSNNHSVFGGGTKVTVLGQPAA
B6: CP_03_F09 (scFv, not shown: small tags and cut ends)
scFv: QMQLVQSGAEVKKPGASVKVSCKASGYTFASYYMHWVRQAPGQGLEWMGIINPSGGSTSYAQKFQGRVTMTRDTSTSTVYMELSRLRSDDTAVYYCASNRGGSYKSVGMDVWGQGTTVTVSSGGGGSGGGGSGGGASNFMLTQPQSVSESPGKTVTISCTRSSGNFASKYVQWYQQRPGSSPTTVIYENYQRPSGVPDRFSGSIDSSSNSATLTISGLKTEDEADYYCQSYDEVSVVFGGGTQLTVLGQPAA
B7: CP_03_C12 (scFv, not shown: small tags and cut ends)
scFv: EVQLVQSGAEVKKPGASVKVSCKASGYTFTGYYMHWVRQAPGQGLEWMGWINPNSGGTNYAQKFQGRVTMTRDTSISTAYMELSSLRSEDTAVYYCARDTGPIDYWGQGTMVTVSSGGGGSGGGGSGGGASDIVMTQTPLSLSVTPGQPASISCKSSQSLLHSDGKTYLYWYLQKPGQPPQLLVYEVSNRFSGVPDKFSGSGSGTDFTLKISRVEAEDVGVYYCMQGIQLPPTFGGGTKVDIKRTAAA
B8: CP_03_H06 (scFv, not shown: small tags and cut ends)
scFv: QVQLVESGGGLVKPGGSLRLSCAASGFTFSDYYMSWIRQAPGKGLEWVSYISSSGSTIYYADSVEGRFTISRDNAKNSLYLQMNSLRTEDTAVYYCARARVGGMDVWGQGTMVTVSSGGGGSGGGGSGGGASNFMLTQPHSVSESPGKTVTISCTRSSGSIASNYVQWYQQRPGSSPTTVIYEDNQRPSGVPDRFSGSIDSSSNSASLTISGLKTEDEADYYCQSFDADNLHVVFGGGTKLTVLGQPAA
B9: CP_01_D10 (scFv, not shown: small tags and cut ends)
scFv: QVQLVESGGGLVQPGRSLRLSCAASGFTFSSYAMHWVRQAPGKGLEWVAVISYDGSSKYYADSVKGRFTISRDNSKNTLYLQMNSLRAEDTAVYYCAKGGGSFGAFDIWGQGTLVTVSSGGGGSGGGGSGGGASDIQMTQSPSSLSASVGDRVTITCRASQSISRYLNWYQQKPGKAPNLLIYAASSLQSGVPSRFSGSGSGTDFTLTISSLQPEDFATYYCQQYNSYPLTFGGGTKLEIKRTAAA
B10: CP_01_C11 (scFv, not shown: small tags and cut ends)
scFv: QVQLVESGAEVKKPGASVKVSCKASGYTFTGYYMHWVRQAPGQGLEWMGRINPNSGGTNYAQKFQGRVTMTRDTSISTAYMELSRLRSDDTAVYYCASGGAGWNWGQGTMVTVSSGGGGSGGGGSGGGASNFMLTQPHSVSESPGKTATISCTRSSGSIASNYVQWYQQRPGSAPTTVIYEDNQRPFGVPDRFSGSIDSSSNSASLTISGLKTEDEADYYCQSHDSSNVVFGGGTQLTVLGQPAA
B11: CP_01_D12 (scFv, not shown: small tags and cut ends)
scFv: EVQLLESGGGVVQPGRSLRLSCAASGFTFSSYAMHWVRQAPGKGLEWVAVISYDGSNKYYADSVKGRFTISRDNSKNTLYLQMNSLRAEDTAVYYCAKGGDTYGFLDNWGQGTMVTVSSGGGGSGGGGSGGGASDIQMTQSPSTLSASVGDRVTITCRASQSISSWLAWYQQKPGKAPKLLIYKASSLESGVPSRFSGSGSGTDFTLTISSLQPEDFATYYCQQFNAYPLTFGGGTKVEIKRTAAA

Our source for the TRBC1 Binding and TRBC2 Binding values is patent US20250314655A1.

One assay addresses TRBC1 peptide (biotinylated) (human). Briefly: TRF assay, scFv on biotin-peptide/neutravidin plate.
Take B1: the TRBC1 Binding came to 1680 TRF units.

B2 had a TRBC1 Binding of 979 TRF units.

In the case of B3, the TRBC1 Binding was 544 TRF units.

B4 came in with a TRBC1 Binding of 762 TRF units.

Take B5: the TRBC1 Binding is 1620 TRF units.

B6 yielded a TRBC1 Binding of 889 TRF units.

The molecule B7 had a TRBC1 Binding of 789 TRF units.

In turn, B8 gave a TRBC1 Binding of 391 TRF units.

The next assay addresses TRBC2 peptide (biotinylated) (human). The assay is described as above.
B9 came in with a TRBC2 Binding of 306 TRF units.

On to B10, for which the TRBC2 Binding came out at 622 TRF units.

Turning to B11, the TRBC2 Binding is 298 TRF units.
